# Source: patent US12604903B2 (priority 2019, dated 2026)
# B1: TKPCQSDKDCKKFACRKPKVPKCINGFCKCVRAPKKVEPTKPCQSDKDCKKFACRKPKVPKCINGFCKCVR (protein)
# chain: TKPCQSDKDCKKFACRKPKVPKCINGFCKCVRAPKKVEPTKPCQSDKDCKKFACRKPKVPKCINGFCKCVR
# notes: two NCR13 monomers linked in tandem by the APKKVEP spacer peptide from MtDef5 defensin, 71 amino acids
molecule,measurement,setting,value
B1,growth inhibition of P. capsici (in words),Phytophthora capsici,inhibited the growth
same,Phytophthora capsici MIC,Phytophthora capsici; in vitro growth inhibition,3 µM
same,IC50,"Phytophthora capsici; read-out: Phytophthora capsici IC50, in vitro growth inhibition",1500 nM
same,antifungal activity against A. brassicicola (in words),Alternaria brassicicola,significantly more active
same,Alternaria brassicicola MIC,Alternaria brassicicola; in vitro growth inhibition,1.5 µM
same,IC50,"Alternaria brassicicola; read-out: Alternaria brassicicola IC50, in vitro growth inhibition",750 nM
